Reference: article PMC9935730, “Expression, Purification, Structural and Functional Characterization of Recombinant Human Parvulin 17” (Molecular Biotechnology, 2022)
Square brackets hold non-standard residues; d marks the D form. Primed or numbered codes have the meaning given here. * marks the point of attachment. Dabcyl′ = quencher group on the Lys side chain, CN(C)c1ccc(/N=N/c2ccc(C(=O)*)cc2)cc1; EDANS = O=S(=O)(O)c1cccc2c(NCCN*)cccc12; pS = N[C@@H](COP(=O)(O)O)C(=O)O

T1: FRET peptide substrate Ac-EK(Dabcyl)pSPRFE(EDANS)KA-NH2 (SMILES …)
T1 peptide: Ac-EK(Dabcyl′)[pS]PRFE(EDANS)KA-NH2

B1: Catalytic domain of Pin1, residues 50-163 (domain or fragment, human, UniProt Q13526 50-163, looked up)
chain: GEPARVRCSHLLVKHSQSRRPSSWRQEKITRTKEEALELINGYIQKIKSGEEDFESLASQFSDCSSAKARGDLGAFSRGQMQKPFEDASFALRTGEMSGPVFTDSGIHIILRTE
B2: Catalytic domain of Par17, residues 60-156 (domain or fragment)
chain: not shown

Target: T1, FRET peptide substrate …
Test: cell-based or functional assay

| Binder | Km, FRET-based chymotrypsin-coupled peptidyl-prolyl cis–trans isomerase assay (values at 1 h) |
| --- | --- |
| B1 | 48.2 µM |
| B2 | 62.5 µM |
